Legend:
[1] = Thermal stability of the polypeptide; assay type: physicochemical; details: 20 mM acetate buffer (pH 6.0), 60 min
Procedure: (§1) A purified specimen of polypeptide having α-isomaltosyl-transferring activity, obtained by the method in Experiment 3-2, was incubated in 20 mM acetate buffer (pH6.0) at various temperatures for 60 min according to the assay method of α-isomaltosyl-transferring enzyme disclosed in Experiment 1-1.

[2] = Optimum temperature of the enzyme activity; assay type: biochemical; details: incubated for 30 min, pH 6.0
Procedure: (§2) The activity of α-isomaltosyl-transferring enzyme was measured by the following assay: A substrate solution was prepared by dissolving panose in 100 mM acetate buffer (pH 6.0) to give a concentration of 2% (w/v). A reaction mixture was prepared by mixing 0.5 ml of the substrate solution and 0.5 ml of an enzyme solution, and incubated at 35° C. for 30 min. After stopping the reaction by boiling for 10 min, the amount of glucose formed in the reaction mixture was determined by the glucose oxidase-peroxidase method. One unit of α-isomaltosyl-transferring activity was defined as the amount of the enzyme that forms one μmole of glucose per minute under the above conditions.
as §1, with “acted on the substrate” for “incubated”, “30 min,” for “60 min”

[3] = Optimum pH of the enzyme activity; assay type: biochemical; details: MacIlvaine buffer, 35° C., 30 min
Procedure: as §2
A purified specimen of polypeptide having α-isomaltosyl-transferring activity, obtained by the method in Experiment 3-2, was acted on the substrate in MacIlvaine buffer of various pHs at 35° C. for 30 min according to the assay method of α-isomaltosyl-transferring enzyme disclosed in Experiment 1-1.

Molecule | thermal stability [1] | optimum temperature [2] | optimum pH [3]
polypeptide having α-isomaltosyl-transferring enzyme activity from Bacillus globisporus N75: purified α-isomaltosyl-transferring enzyme from Bacillus globisporus N75 (FERM BP-7591), contains the … (protein, listed as Bacillus globisporus) IDGVYHAPYGIDDLYEIQATERSPRDPVAGETVYIKITTWPIEPGQTAWVTWTKNGVAQPAVGAAYKYNSGNNTYWEANLGSFAKGDVISYTVRGNKDGANEKTAGPFTFTVTDWEYVSSIGSVTNNTNRVLLNAVPNTGTLSPKINISFTADDVFRVQLSPTGSGTLSTGLSNFTVTDSASTAWISTSKLKLKVDKNPFKLSVYKPDGTTLIARQYDSTANRNLAWLTNGSTVINKIEDHFYSPASEEFFGFGERYNNFRKRGTDVDTYVYNQYKNQNDRTYMAIPFMLNSSGYGIFVNSTYYSKFRLATERSDMYSFTADTGGSANSTLDYYFIYGNDLKGVVSNYANITGKPAALPKWAFGLWMSANEWDRQSKVATAINNANTNNIPATAVVLEQWSDENTFYMFNDAQYTAKPGGSTHSYTDYIFPAAGRWPNPKQMADNVHSNGMKLVLWQVPIQKWTAAPHLQKDNDESYMIAQNYAVGNGSGGQYRIPSGQWFENSLLLDFTNPSAKNWWMSKRAYLFDGVGIDGFKTDGGEMVWGRWNTFANGKKGDEMRNQYPNDYVKAYNEYARSKKSDAVSFSRSGTQGAQANQIFWSGDQESTFGAFQQAVQAGLTAGLSGVPYWSWDLAGFTGAYPSAELYKRATAMSAFAPIMQFHSEANGSSGINEERSPWNAQARTGDNTIISHFAKYTNTRMNLLPYIYSEAKAASDTGVPMMRAMALEYPSDTQTYGLTQQYMFGGSLLVAPVLNQGETNKNIYLPQGDWIDFWFGAQRPGGRTISYYAGVDDLPVFVKSGSILPMNLNGQYQVGGTIGNSLTAYNNLTFRIYPLGTTTYSWNDDIGGSVKTITSTEQYGLNKETVTLPAINSAKTLQVFTTKPSSVTLGGTALTAHSTLSALIGASSGWYYDTVQKLAYVKLGASSSAQTVVLDGVNKVEYEAEFGTLTGVTTNTNHAGYMGTGFVDGFDAAGDAVTFDVSVKAAGTYALKVRYASAGGNASRAIYVNNAKVTDLALPATANWDTWGTATVNVALNAGYNSIKVSYDNTNTLGINLDNIAIVEH | up to 45 °C | about 50 °C | about 6.0
polypeptide having α-isomaltosyl-transferring enzyme activity from Bacillus globisporus C11: purified α-isomaltosyl-transferring enzyme from Bacillus globisporus C11 (FERM BP-7144), contains the … (protein, listed as Bacillus globisporus) IDGVYHAPYGIDDLYEIQATERSPRDPVAGDTVYIKITTWPIESGQTAWVTWTKNGVNQAAVGAAFKYNSGNNTYWEANLGTFAKGDVISYTVHGNKDGANEKVIGPFTFTVTGWESVSSISSITDNTNRVVLNAVPNTGTLKPKINLSFTADDVLRVQVSPTGTGTLSSGLSNYTVSDTASTTWLTTSKLKVKVDKNPFKLSVYKPDGTTLIARQYDSTTNRNIAWLTNGSTIIDKVEDHFYSPASEEFFGFGEHYNNFRKRGNDVDTYVFNQYKNQNDRTYMAIPFMLNSSGYGIFVNSTYYSKFRLATERTDMFSFTADTGGSAASMLDYYFIYGNDLKNVVSNYANITGKPTALPKWAFGLWMSANEWDRQTKVNTAINNANSNNIPATAVVLEQWSDENTFYIFNDATYTPKTGSAAHAYTDFTFPTSGRWTDPKAMADNVHNNGMKLVLWQVPIQKWTSTPYTQKDNDEAYMTAQNYAVGNGSGGQYRIPSGQWFENSLLLDFTNTAAKNWWMSKRAYLFDGVGIDGFKTDGGEMVWGRSNTFSNGKKGNEMRNQYPNEYVKAYNEYARSKKADAVSFSRSGTQGAQANQIFWSGDQESTFGAFQQAVNAGLTASMSGVPYWSWDMAGFTGTYPTAELYKRATEMAAFAPVMQFHSESNGSSGINEERSPWNAQARTGDNTIISHFAKYTNTRMNLLPYIYSEAKMASDTGVPMMRAMALEYPKDTNTYGLTQQYMFGGNLLIAPVMNQGETNKSIYLPQGDWIDFWFGAQRPGGRTISYTAGIDDLPVFVKFGSILPMNLNAQYQVGGTIGNSLTSYTNLAFRIYPLGTTTYDWNDDIGGSVKTITSTEQYGLNKETVTVPAINSTKTLQVFTTKPSSVTVGGSVMTEYSTLTALTGASTGWYYDTVQKFTYVKLGSSASAQSVVLNGVNKVEYEAEFGVQSGVSTNTNHAGYTGTGFVDGFETLGDNVAFDVSVKAAGTYTMKVRYSSGAGNGSRAIYVNNTKVTDLALPQTTSWDTWGTATFSVSLSTGLNTVKVSYDGTSSLGINFDNIAIVEQ | up to 40 °C | about 50 °C | 

From patent US7098013B2, “Polypeptide having α-isomaltosyl-transferase activity” (Kabushiki Kaisha Hayashibara Seibutsu Kagaku Kenkyujo, priority 2000, dated 2006)
